The values that follow come from patent publication US20240150465A1 (Chugai, published 2024).

Assay [1] has as its target T1, Cynomolgus DLL3 ECD with Myc-tag on N-terminus and His-tag on C-terminus (cynomolgus).
T1 construct: also called Myc-cynoDLL3-His; Cyno DLL3
T1 chain: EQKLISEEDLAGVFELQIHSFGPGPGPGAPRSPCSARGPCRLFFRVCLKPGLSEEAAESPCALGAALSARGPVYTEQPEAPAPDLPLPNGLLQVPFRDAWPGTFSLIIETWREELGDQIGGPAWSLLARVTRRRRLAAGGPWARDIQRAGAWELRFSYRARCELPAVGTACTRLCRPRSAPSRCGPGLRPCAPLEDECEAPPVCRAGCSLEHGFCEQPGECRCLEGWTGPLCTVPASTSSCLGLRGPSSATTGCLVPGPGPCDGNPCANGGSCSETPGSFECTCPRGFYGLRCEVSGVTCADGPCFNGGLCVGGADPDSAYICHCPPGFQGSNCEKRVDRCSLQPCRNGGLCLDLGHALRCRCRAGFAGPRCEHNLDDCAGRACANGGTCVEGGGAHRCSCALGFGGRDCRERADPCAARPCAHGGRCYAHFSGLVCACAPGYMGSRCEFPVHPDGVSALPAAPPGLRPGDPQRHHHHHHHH
The experiment in a line: SPR Biacore 8K, 37 C, pH 7.4; bispecific captured on anti-human Fc, DLL3 as analyte, 1:1 model. The method, then:
(§1) Binding affinity of anti-DLL3 arm in the anti-DLL3/CD3 antibodies to human or cynomolgus DLL3 at pH 7.4 were assessed at 37 degrees C. using Biacore 8K instrument (GE Healthcare). Anti-human Fc (GE Healthcare) was immobilized onto all flow cells of a CM4 sensor chip using amine coupling kit (GE Healthcare). The bispecific antibodies were captured onto the anti-Fc sensor surfaces, and then recombinant human or cynomolgus DLL3 was injected over the flow cell. All antibodies and analytes were prepared in ACES pH 7.4 containing 20 mM ACES, 150 mM NaCl, 0.05% Tween 20, 0.005% NaN₃. Sensor surface was regenerated each cycle with 3M MgCl₂.
On the technique in general: Surface plasmon resonance follows binding to a sensor surface in real time, without labels.

Assay [2] has as its target T2, recombinant human DLL3 (human, UniProt Q9NYJ7 27-492).
T2 sequence: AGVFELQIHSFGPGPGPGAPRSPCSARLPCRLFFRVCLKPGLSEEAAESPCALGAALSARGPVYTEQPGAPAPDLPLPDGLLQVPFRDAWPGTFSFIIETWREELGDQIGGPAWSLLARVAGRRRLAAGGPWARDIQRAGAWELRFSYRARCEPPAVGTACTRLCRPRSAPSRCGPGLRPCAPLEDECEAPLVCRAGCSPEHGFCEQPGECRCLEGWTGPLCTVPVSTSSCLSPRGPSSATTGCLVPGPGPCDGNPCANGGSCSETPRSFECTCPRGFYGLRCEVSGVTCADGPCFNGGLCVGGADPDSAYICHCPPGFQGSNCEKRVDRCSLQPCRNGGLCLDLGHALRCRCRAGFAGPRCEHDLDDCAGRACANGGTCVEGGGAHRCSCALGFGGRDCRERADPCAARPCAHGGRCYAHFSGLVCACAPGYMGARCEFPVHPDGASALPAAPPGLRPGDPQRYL
The assay is described as above. As to the method: as §1

The target of assay [3] is recombinant human CD3eg protein (CD3 epsilon-gamma, heterodimer of CD3 epsilon and CD3 gamma) (human, UniProt P07766 23-126; P09693 23-116). The assay is described as follows: SPR Biacore 8K, 37 C, pH 7.4; bispecific captured on anti-human Fc, human CD3eg as analyte, 1:1 model. As to the method:
as §1, with “of the anti-CD3” for “of anti-DLL3”, “arm of” for “arm in”, “anti-DLL3/CD3 bispecific” for “anti-DLL3/CD3”, “to CD3” for “to human or cynomolgus DLL3”, “7.4 was” for “7.4 were”, “human CD3eg proteins (CD3 epsilon-gamma, heterodimer of CD3 epsilon and CD3 gamma)” for “human or cynomolgus DLL3”

Chain of recombinant human CD3eg protein (CD3 epsilon-gamma, heterodimer of CD3 epsilon and CD3 gamma) (P07766 23-126 limits assumed, chain 1 of 2): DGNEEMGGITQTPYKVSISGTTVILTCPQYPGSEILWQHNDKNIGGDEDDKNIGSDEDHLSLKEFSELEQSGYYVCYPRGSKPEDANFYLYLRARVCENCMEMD
Chain of recombinant human CD3eg protein (CD3 epsilon-gamma, heterodimer of CD3 epsilon and CD3 gamma) (P09693 23-116 limits assumed, chain 2 of 2): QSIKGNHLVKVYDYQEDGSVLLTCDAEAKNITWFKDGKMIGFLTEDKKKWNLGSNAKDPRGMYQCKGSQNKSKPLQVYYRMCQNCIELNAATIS

B1: DLA0316/TR01 (bispecific antibody, V domains shown)
VH 1: QEQLVESGGGLVQPGGSLKLSCKVSGFDFSNYGVSWVRQAPGKGLEWIGYIDPAFGRTYYASWVNGRFTISSHNAQNTLYLQLNSLTAADTATYFCVRVALVVAGVAYYGMDVWGPGTLVTVSS
VL 1: ADVVMTQTPASVEAAVGGTVTINCQASQNIYSYLSWYQQKPGQPPKLLIYRTSTLASGVPSRFKGSGSGTQFTLTISDLECADAATYYCQSYYYSSGSSYGAFAFGGGTEVVVK
VH 2: QVQLVESGGGVVQPGGSLRLSCAASGFTFSNAWMHWVRQAPGKGLEWVAQIKDKSQNYATYVAESVKGRFTISRADSKNSIYLQMNSLKTEDTAVYYCRYVHYAAGYGVDIWGQGTTVTVSS
VL 2: DIVMTQSPLSLPVTPGEPASISCRSSQPLVHSNRNTYLHWYQQKPGQAPRLLIYKVSNRFSGVPDRFSGSGSGTDFTLKISRVEAEDVGVYYCGQGTQVPYTFGQGTKLEIK
notes: IgG-type anti-DLL3/CD3 bispecific made by Fab arm exchange
For the molecule B1, in assay [1], the Kd (as a rule, the free concentration of one partner at which half of the binding sites on the other are occupied at equilibrium, for simple one-to-one binding) worked out at 0.0199 nM; the off-rate constant (koff) (commonly the first-order rate constant of dissociation) came to 4.96e-05 s⁻¹; the on-rate (kon) – broadly, the second-order rate constant of association – worked out at 2.49e+06 M⁻¹ s⁻¹. In assay [2], the Kd was 0.0353 nM, the dissociation rate constant (koff) came to 8.72e-05 s⁻¹ and the kon was 2.47e+06 M⁻¹ s⁻¹.

B2: D30316AE03/AN121 (bispecific antibody, V domains shown)
VH 1: EVQLVESGGGLVQPGGSLRLSCAASGFTFSNYGVSWVRQAPGQGLEWMGYIDIAFGRTYYASWVTGRITINPDTSKNQFSLQLNSVTPEDTAVYYCARVALVVAGVAYYGMDVWGQGTLVTVSS
VL 1: DIVMTQSPDSLAVSLGERATINCQASQNIYSYLSWYQQKPGKAPKLLIYRTSTLASGVPDRFSGSGSGTDFTLKISRVEAEDVGVYYCQSYYYSSGSSYGAFAFGQGTKVEIK
VH 2: QVQLVESGGGLVQPGRSLRLSCAASGFTFSNAWMHWVRQAPGKGLEWVAQIKDRANSYNTYYAESVKGRFTISRDDSKNSIYLQMNSLKTEDTAVYYCRYVHYTTYAGSSFSYGVDAWGQGTTVTVSS
VL 2: DIVMTQSPLSLPVTPGEPASISCRSSQPLVHSNRNTYLHWYQQKPGQAPRLLIYKVSNRFSGVPDRFSGSGSGTDFTLKISRVEAEDVGVYYCGQGTQVPYTFGQGTKLEIK
notes: as for B1
For B2, in assay [3], the Kd was found to be 7.55 nM, the dissociation rate constant (koff) came to 0.000744 s⁻¹ and the on-rate constant (kon) amounted to 98600 M⁻¹ s⁻¹.

B3: DLA0841/TR01 (bispecific antibody, V domains shown)
VH 1: QEQLVESGGGLVQPEGSLTLTCTASGFSFSSSYDMCWVRQAPGKGPEWIACIYTGDGSTDYASWAKGRFTVSKASSTTVTLQMTSLAVADTATYFCARNSGYGYFGLWGPGTLVTVSS
VL 1: QVLTQTPSPVSAAVGGTVTISCQSTESVYGSDWLSWYQQKPGQPPKVLIYQASNLEIGVPSRFKGSGSGTQFTLTISGAQCDDAATYYCQGYYSGYIYAFGGGTEVVVK
VH 2: QVQLVESGGGVVQPGGSLRLSCAASGFTFSNAWMHWVRQAPGKGLEWVAQIKDKSQNYATYVAESVKGRFTISRADSKNSIYLQMNSLKTEDTAVYYCRYVHYAAGYGVDIWGQGTTVTVSS
VL 2: DIVMTQSPLSLPVTPGEPASISCRSSQPLVHSNRNTYLHWYQQKPGQAPRLLIYKVSNRFSGVPDRFSGSGSGTDFTLKISRVEAEDVGVYYCGQGTQVPYTFGQGTKLEIK
notes: as for B1
In assay [1], B3 displayed a Kd of 0.0621 nM, a koff of 0.000238 s⁻¹ and a kon of 3.83e+06 M⁻¹ s⁻¹. In assay [2], the dissociation constant (Kd) turned out to be 0.0639 nM, the koff was found to be 0.000247 s⁻¹ and the kon was 3.87e+06 M⁻¹ s⁻¹.

B4: D30841AE08/TR01 (bispecific antibody, V domains shown)
VH 1: QVTLRESGPALVKPTQTLTLTCTFSGFSLSSSYDMGWVRQAPGQGLEWMGTIYTGDYSTDYASWAKGRVTISVDTSKNQFSLKLSSVTAADTAVYYCARHTGYGYFGLWGQGTLVTVSS
VL 1: DIQLTQSPSFLSASVGDRVTITCQSTESVYGSDWLSWYQQKPGQPPKLLIYQASNLEIGVPSRFSGSGSGTDFTLTINSLEAEDAATYYCQGYYSGYIYAFGGGTKVEIK
VH 2: QVQLVESGGGVVQPGGSLRLSCAASGFTFSNAWMHWVRQAPGKGLEWVAQIKDKSQNYATYVAESVKGRFTISRADSKNSIYLQMNSLKTEDTAVYYCRYVHYAAGYGVDIWGQGTTVTVSS
VL 2: DIVMTQSPLSLPVTPGEPASISCRSSQPLVHSNRNTYLHWYQQKPGQAPRLLIYKVSNRFSGVPDRFSGSGSGTDFTLKISRVEAEDVGVYYCGQGTQVPYTFGQGTKLEIK
notes: as for B1
As to B4, in assay [1], the Kd stood at 0.0737 nM, the koff worked out at 0.000191 s⁻¹ and the association rate constant (kon) amounted to 2.59e+06 M⁻¹ s⁻¹. In addition, in assay [2], the equilibrium dissociation constant (Kd) turned out to be 0.0872 nM, the off-rate constant (koff) is 0.000215 s⁻¹ and the association rate constant (kon) was found to be 2.47e+06 M⁻¹ s⁻¹.

B5: D30316AE03/AN119 (bispecific antibody, V domains shown)
VH 1: EVQLVESGGGLVQPGGSLRLSCAASGFTFSNYGVSWVRQAPGQGLEWMGYIDIAFGRTYYASWVTGRITINPDTSKNQFSLQLNSVTPEDTAVYYCARVALVVAGVAYYGMDVWGQGTLVTVSS
VL 1: DIVMTQSPDSLAVSLGERATINCQASQNIYSYLSWYQQKPGKAPKLLIYRTSTLASGVPDRFSGSGSGTDFTLKISRVEAEDVGVYYCQSYYYSSGSSYGAFAFGQGTKVEIK
VH 2: QVQLVESGGGLVQPGRSLRLSCAASGFTFSNAWMHWVRQAPGKGLEWVAQIKDKQNSYAAYYAESVKGRFTISRDDSKNSIYLQMNSLKTEDTAVYYCRYVHYTTYSGGFFSYGVDAWGQGTTVTVSS
VL 2: DIVMTQSPLSLPVTPGEPASISCRSSQPLVHSNRNTYLHWYQQKPGQAPRLLIYKVSNRFSGVPDRFSGSGSGTDFTLKISRVEAEDVGVYYCGQGTQVPYTFGQGTKLEIK
notes: as for B1
Regarding B5, in assay [3], the dissociation constant (Kd) came to 11 nM, the koff came to 0.0016 s⁻¹ and the kon turned out to be 145000 M⁻¹ s⁻¹.

B6: D30316AE03/AN104 (bispecific antibody, V domains shown)
VH 1: EVQLVESGGGLVQPGGSLRLSCAASGFTFSNYGVSWVRQAPGQGLEWMGYIDIAFGRTYYASWVTGRITINPDTSKNQFSLQLNSVTPEDTAVYYCARVALVVAGVAYYGMDVWGQGTLVTVSS
VL 1: DIVMTQSPDSLAVSLGERATINCQASQNIYSYLSWYQQKPGKAPKLLIYRTSTLASGVPDRFSGSGSGTDFTLKISRVEAEDVGVYYCQSYYYSSGSSYGAFAFGQGTKVEIK
VH 2: QVQLVESGGGLVQPGRSLRLSCAASGFTFSNAWMHWVRQAPGKGLEWVAQIKDRQNGYNTYYAESVKGRFTISRDDSKNSIYLQMNSLKTEDTAVYYCRYVHYTTTYGSYYQFGVDAWGQGTTVTVSS
VL 2: DIVMTQSPLSLPVTPGEPASISCRSSQPLVHSNRNTYLHWYQQKPGQAPRLLIYKVSNRFSGVPDRFSGSGSGTDFTLKISRVEAEDVGVYYCGQGTQVPYTFGQGTKLEIK
notes: as for B1
As for B6, in assay [3], the Kd came out at 37.3 nM, the off-rate constant (koff) was found to be 0.00266 s⁻¹ and the kon is 71400 M⁻¹ s⁻¹.

B7: D30841AE11/TR01 (bispecific antibody, V domains shown)
VH 1: QVTLRESGPALVKPTQTLTLTCTFSGFSLSSSYDMGWVRQAPGQGLEWMGTIYTGDYSTDYASWAKGRVTISVDTSKNQFSLKLSSVTAADTAVYYCARHTGYGYFGLWGQGTLVTVSS
VL 1: DIQLTQSPSFLSASVGDRVTITCQSTESVYGSDWLSWYQQKPGQPPKLLIYQASNLEIGVPSRFSGSGSGTDFTLTINSLEAEDAATYYCQGYYSGYSYAFGGGTKVEIK
VH 2: QVQLVESGGGVVQPGGSLRLSCAASGFTFSNAWMHWVRQAPGKGLEWVAQIKDKSQNYATYVAESVKGRFTISRADSKNSIYLQMNSLKTEDTAVYYCRYVHYAAGYGVDIWGQGTTVTVSS
VL 2: DIVMTQSPLSLPVTPGEPASISCRSSQPLVHSNRNTYLHWYQQKPGQAPRLLIYKVSNRFSGVPDRFSGSGSGTDFTLKISRVEAEDVGVYYCGQGTQVPYTFGQGTKLEIK
notes: as for B1
Turning to B7, in assay [1], the dissociation constant Kd worked out at 0.142 nM, the koff was 0.000265 s⁻¹ and the on-rate constant (kon) is 1.86e+06 M⁻¹ s⁻¹. In addition, in assay [2], the dissociation constant (Kd) is 0.172 nM, the koff amounted to 0.000325 s⁻¹ and the kon is 1.88e+06 M⁻¹ s⁻¹.
